Assay results as given in patent US20220235103A1 (Molecular Partners, published 2022).
Substitutions are numbered along the chain they refer to.

Assays:
Assay in all cases: cell-based or functional assay
[1] = molecular target: spike protein of live SARS-CoV-2 (2019-nCoV/IDF0372/2020) (SARS-CoV-2, UniProt P0DTC2 14-1273)
[2] = molecular target: T1, SARS-CoV-2 spike protein, wild type (Wuhan) (SARS-CoV-2, UniProt P0DTC2 14-1273)
[3] = molecular target: T1, SARS-CoV-2 spike protein, wild type …; remark: listed apart in the source
[4] = molecular target: SARS-CoV-2 spike protein variant B.1.351 (SARS-CoV-2, UniProt P0DTC2 14-1273)
[5] = molecular target: SARS-CoV-2 spike protein N501Y (SARS-CoV-2, UniProt P0DTC2 14-1273)
[6] = molecular target: SARS-CoV-2 spike protein E484K (SARS-CoV-2, UniProt P0DTC2 14-1273)
[7] = molecular target: SARS-CoV-2 spike protein K417E (SARS-CoV-2, UniProt P0DTC2 14-1273)
[8] = molecular target: SARS-CoV-2 spike protein Y453F (SARS-CoV-2, UniProt P0DTC2 14-1273)
[9] = molecular target: SARS-CoV-2 spike protein D614G (SARS-CoV-2, UniProt P0DTC2 14-1273)
[10] = molecular target: SARS-CoV-2 spike protein S477N (SARS-CoV-2, UniProt P0DTC2 14-1273)
[11] = molecular target: SARS-CoV-2 spike protein N439K (SARS-CoV-2, UniProt P0DTC2 14-1273)
[12] = molecular target: SARS-CoV-2 spike protein T478I (SARS-CoV-2, UniProt P0DTC2 14-1273)
[13] = molecular target: SARS-CoV-2 spike protein P479S (SARS-CoV-2, UniProt P0DTC2 14-1273)
[14] = molecular target: SARS-CoV-2 spike protein V483A (SARS-CoV-2, UniProt P0DTC2 14-1273)
[15] = molecular target: SARS-CoV-2 spike protein F486V (SARS-CoV-2, UniProt P0DTC2 14-1273)
[16] = molecular target: SARS-CoV-2 spike protein Q493K (SARS-CoV-2, UniProt P0DTC2 14-1273)
[17] = molecular target: SARS-CoV-2 spike protein F490S (SARS-CoV-2, UniProt P0DTC2 14-1273)
[18] = molecular target: T1, SARS-CoV-2 spike protein, wild type …; remark: listed apart in the source

B1: vS07_19G10 (designed binder)
chain: MRGSHHHHHHGSDLGNKLLDAAWVGQDDEVRILLAAGADVNAKDWQGETPLHLAATKGHLEIVEVLLKAGADVNAKDVVGYTPLHVAASQGHLEIVEVLLKAGADVNAQDVHGYTPADLAAQAGHEDIAEVLQKAA
notes: also called R2a
With B1 the “protection of Vero E6 cells from SARS-CoV-2 cytopathic effect” value (“protection of Vero E6 cells” below) [1] was 100 nM.

B2: vS07_23E04 (designed binder)
chain: MRGSHHHHHHGSDLGKKLLQAARAGQLDEVRELLKAGADVNAKDQEGITPLHVAAHQGHLEIVEVLLKAGADVNAKDVWGRTPLHLAAWRGHLEIVEVLLKAGADVNAKDHAGATPLHAAALSGHLEIVEVLLKAGADVNAQDKSGKTPADLAARAGHQDIAEVLQKAA
notes: also called R3c
In the case of B2, the “protection of Vero E6 cells” value [1] is reported as 20 nM, the “VSV-SARS-CoV-2 IC50” value [2] is reported as < 2 nM and the “VSV Pseudotype Neutralization Assay IC50” value [3] is reported as 13.3 ng/mL. For the same binder, the “VSV Pseudotype Neutralization Assay IC50” value [4] was > 100 ng/mL, the “VSV Pseudotype Neutralization Assay IC50” value [5] was 27.8 ng/mL and the “VSV Pseudotype Neutralization Assay IC50” value [6] was > 100 ng/mL. For the same binder, the “VSV Pseudotype Neutralization Assay IC50” value [7] was 3.6 ng/mL, the “VSV Pseudotype Neutralization Assay IC50” value [8] was 3.3 ng/mL and the “VSV Pseudotype Neutralization Assay IC50” value [9] was 23 ng/mL. The “VSV Pseudotype Neutralization Assay IC50” value [10] was 9 ng/mL, the “VSV Pseudotype Neutralization Assay IC50” value [11] was 12.9 ng/mL and the “VSV Pseudotype Neutralization Assay IC50” value [12] was 16.7 ng/mL. For the same binder, the “VSV Pseudotype Neutralization Assay IC50” value [13] was 27.6 ng/mL, the “VSV Pseudotype Neutralization Assay IC50” value [14] was 21.3 ng/mL and the “VSV Pseudotype Neutralization Assay IC50” value [15] was > 100 ng/mL. For the same binder, the “VSV Pseudotype Neutralization Assay IC50” value [16] was 45.8 ng/mL and the “VSV Pseudotype Neutralization Assay IC50” value [17] was 8.1 ng/mL.

B3: vS07_29B10 (designed binder)
chain: B2 chain with Q45R, V53L, H56Q, Q57H, R90Q, H111L, A119V, S123Y
notes: also called R3b
In the case of B3, the “protection of Vero E6 cells” value [1] is reported as 20 nM, the “VSV-SARS-CoV-2 IC50” value [2] is reported as < 2 nM and the “VSV Pseudotype Neutralization Assay IC50” value [3] is reported as 7.2 ng/mL. The “VSV Pseudotype Neutralization Assay IC50” value [4] was 76 ng/mL, the “VSV Pseudotype Neutralization Assay IC50” value [5] was 9.1 ng/mL and the “VSV Pseudotype Neutralization Assay IC50” value [6] was 64.2 ng/mL. The “VSV Pseudotype Neutralization Assay IC50” value [7] was 1.8 ng/mL, the “VSV Pseudotype Neutralization Assay IC50” value [8] was 10.9 ng/mL and the “VSV Pseudotype Neutralization Assay IC50” value [9] was 11.9 ng/mL. The “VSV Pseudotype Neutralization Assay IC50” value [10] was 3 ng/mL, the “VSV Pseudotype Neutralization Assay IC50” value [11] was 7.3 ng/mL and the “VSV Pseudotype Neutralization Assay IC50” value [12] was 11.2 ng/mL. The “VSV Pseudotype Neutralization Assay IC50” value [13] was 7.2 ng/mL, the “VSV Pseudotype Neutralization Assay IC50” value [14] was 21.8 ng/mL and the “VSV Pseudotype Neutralization Assay IC50” value [15] was > 100 ng/mL. For the same binder, the “VSV Pseudotype Neutralization Assay IC50” value [16] was 30 ng/mL and the “VSV Pseudotype Neutralization Assay IC50” value [17] was 2.3 ng/mL.

B4: vS07_12C06 (designed binder)
chain: B2 chain with Q45R, I48K, H56Q, Q57E, R90I, H111V, A112S, S123H, K134N
notes: also called R1b; Rb1
For B4, the “protection of Vero E6 cells” value [1] was 2 nM, the “VSV-SARS-CoV-2 IC50” value [2] was < 2 nM and the “VSV Pseudotype Neutralization Assay IC50” value [3] was 2.1 ng/mL. The “VSV Pseudotype Neutralization Assay IC50” value [4] was 26 ng/mL, the “VSV Pseudotype Neutralization Assay IC50” value [5] was 4.8 ng/mL and the “VSV Pseudotype Neutralization Assay IC50” value [6] was 10.2 ng/mL. For the same binder, the “VSV Pseudotype Neutralization Assay IC50” value [7] was 1 ng/mL, the “VSV Pseudotype Neutralization Assay IC50” value [8] was 5.9 ng/mL and the “VSV Pseudotype Neutralization Assay IC50” value [9] was 6.2 ng/mL. The “VSV Pseudotype Neutralization Assay IC50” value [10] was 2 ng/mL, the “VSV Pseudotype Neutralization Assay IC50” value [11] was 5.3 ng/mL and the “VSV Pseudotype Neutralization Assay IC50” value [12] was 3.1 ng/mL. For the same binder, the “VSV Pseudotype Neutralization Assay IC50” value [13] was 2.3 ng/mL, the “VSV Pseudotype Neutralization Assay IC50” value [14] was 8.4 ng/mL and the “VSV Pseudotype Neutralization Assay IC50” value [15] was > 100 ng/mL. The “VSV Pseudotype Neutralization Assay IC50” value [16] was 28.2 ng/mL and the “VSV Pseudotype Neutralization Assay IC50” value [17] was 1.7 ng/mL.

B5: ALE033 (designed binder)
chain: MRGSHHHHHHGSDLGKKLLEAARAGQDDEVRELLKAGADVNAKDYFSHTPLHLAARNGHLKIVEVLLKAGADVNAKDFAGKTPLHLAANEGHLEIVEVLLKAGADVNAQDIFGKTPADIAADAGHEDIAEVLQKAAGSPTPTPTTPTPTPTTPTPTPTGSDLGKKLLEAARAGQDDEVRELLKAGADVNAKDYFSHTPLHLAARNGHLKIVEVLLKAGADVNAKDFAGKTPLHLAANEGHLEIVEVLLKAGADVNAQDIFGKTPADIAADAGHEDIAEVLQKAAGSPTPTPTTPTPTPTTPTPTPTGSDLGKKLLQAARAGQLDEVRELLKAGADVNAKDREGITPLHLAAQHGHLEIVEVLLKAGADVNAKDVWGRTPLHLAAWQGHLEIVEVLLKAGADVNAKDLAGATPLHVAALYGHLEIVEVLLKAGADVNAQDKSGKTPADLAARAGHQDIAEVLQKAAGSPTPTPTTPTPTPTTPTPTPTGSDLGKKLLQAARAGQLDEVRELLKAGADVNAKDREGKTPLHVAAQEGHLEIVEVLLKAGADVNAKDVWGRTPLHLAAWIGHLEIVEVLLKAGADVNAKDVSGATPLHAAALHGHLEIVEVLLNAGADVNAQDKSGKTPADLAARAGHQDIAEVLQKAAGSPTPTPTTPTPTPTTPTPTPTGSDLGKKLLQAARAGQLDEVRELLKAGADVNAKDREGITPLHLAAQHGHLEIVEVLLKAGADVNAKDVWGRTPLHLAAWQGHLEIVEVLLKAGADVNAKDLAGATPLHVAALYGHLEIVEVLLKAGADVNAQDKSGKTPADLAARAGHQDIAEVLQKAA
B5 was tested, and the “IC50, SARS-CoV-2 VSV pseudovirus neutralization (luciferase)” value (“IC50 … (luciferase)” below) [18] was 0.125 nM.

B6: vS07_14G03 (designed binder)
chain: MRGSHHHHHHGSDLGQKLLHAAQYGQDDEVRILLAAGADVNAKDKQGNTPLHIAAFHGHLEIVEVLLKAGADVNAKDQWGLTPLHLAAAWGHLEIVEVLLKAGADVNAQDNYGQTPADLAAESGHEDIAEVLQKAA
notes: also called S2a
For B6, the “VSV-SARS-CoV-2 IC50” value [2] was < 100 nM.

B7: ALE030 (designed binder)
chain: MRGSHHHHHHGSDLGKKLLEAARAGQDDEVRELLKAGADVNAKDYFSHTPLHLAARNGHLKIVEVLLKAGADVNAKDFAGKTPLHLAANEGHLEIVEVLLKAGADVNAQDIFGKTPADIAADAGHEDIAEVLQKAAGSPTPTPTTPTPTPTTPTPTPTGSDLGKKLLEAARAGQDDEVRELLKAGADVNAKDYFSHTPLHLAARNGHLKIVEVLLKAGADVNAKDFAGKTPLHLAANEGHLEIVEVLLKAGADVNAQDIFGKTPADIAADAGHEDIAEVLQKAAGSPTPTPTTPTPTPTTPTPTPTGSDLGKKLLQAARAGQLDEVRELLKAGADVNAKDREGITPLHLAAQHGHLEIVEVLLKAGADVNAKDVWGRTPLHLAAWQGHLEIVEVLLKAGADVNAKDLAGATPLHVAALYGHLEIVEVLLKAGADVNAQDKSGKTPADLAARAGHQDIAEVLQKAAGSPTPTPTTPTPTPTTPTPTPTGSDLGNKLLDAAWVGQDDEVRILLAAGADVNAKDWQGETPLHLAATKGHLEIVEVLLKAGADVNAKDVVGYTPLHVAASQGHLEIVEVLLKAGADVNAQDVHGYTPADLAAQAGHEDIAEVLQKAAGSPTPTPTTPTPTPTTPTPTPTGSDLGKKLLQAARAGQLDEVRELLKAGADVNAKDREGKTPLHVAAQEGHLEIVEVLLKAGADVNAKDVWGRTPLHLAAWIGHLEIVEVLLKAGADVNAKDVSGATPLHAAALHGHLEIVEVLLNAGADVNAQDKSGKTPADLAARAGHQDIAEVLQKAA
In the case of B7, the “IC50 … (luciferase)” value [18] is reported as 0.119 nM.

B8: ALE038 (designed binder)
chain: MRGSHHHHHHGSDLGKKLLEAARAGQDDEVRELLKAGADVNAKDYFSHTPLHLAARNGHLKIVEVLLKAGADVNAKDFAGKTPLHLAANEGHLEIVEVLLKAGADVNAQDIFGKTPADIAADAGHEDIAEVLQKAAGSPTPTPTTPTPTPTTPTPTPTGSDLGKKLLEAARAGQDDEVRELLKAGADVNAKDYFSHTPLHLAARNGHLKIVEVLLKAGADVNAKDFAGKTPLHLAANEGHLEIVEVLLKAGADVNAQDIFGKTPADIAADAGHEDIAEVLQKAAGSPTPTPTTPTPTPTTPTPTPTGSDLGKKLLQAARAGQLDEVRELLKAGADVNAKDREGKTPLHVAAQEGHLEIVEVLLKAGADVNAKDVWGRTPLHLAAWIGHLEIVEVLLKAGADVNAKDVSGATPLHAAALHGHLEIVEVLLNAGADVNAQDKSGKTPADLAARAGHQDIAEVLQKAAGSPTPTPTTPTPTPTTPTPTPTGSDLGKKLLQAARAGQLDEVRELLKAGADVNAKDREGITPLHLAAQHGHLEIVEVLLKAGADVNAKDVWGRTPLHLAAWQGHLEIVEVLLKAGADVNAKDLAGATPLHVAALYGHLEIVEVLLKAGADVNAQDKSGKTPADLAARAGHQDIAEVLQKAAGSPTPTPTTPTPTPTTPTPTPTGSDLGHKLLLAAQAGQDDEVRILLAAGADVNAKDVFGQTPLHVAAVAGHLEIVEVLLKAGADVNAKDSIGYTPLHHAARVGHLEIVEVLLKAGADVNAQDWIGITPADLAAFEGHEDIAEVLQKAA
With B8 the “IC50 … (luciferase)” value [18] was 0.264 nM.
